Test results: IntAct's records for PubMed 16301520

B1: Mitochondrial antiviral-signaling protein (Homo sapiens), Q7Z434 (parent)
chain: MPFAEDKTYKYICRNFSNFCNVDVVEILPYLPCLTARDQDRLRATCTLSGNRDTLWHLFNTLQRRPGWVEYFIAALRGCELVDLADEVASVYQSYQPRTSDRPPDPLEPPSLPAERPGPPTPAAAHSIPYNSCREKEPSYPMPVQETQAPESPGENSEQALQTLSPRAIPRNPDGGPLESSSDLAALSPLTSSGHQEQDTELGSTHTAGATSSLTPSRGPVSPSVSFQPLARSTPRASRLPGPTGSVVSTGTSFSSSSPGLASAGAAEGKQGAESDQAEPIICSSGAEAPANSLPSKVPTTLMPVNTVALKVPANPASVSTVPSKLPTSSKPPGAVPSNALTNPAPSKLPINSTRAGMVPSKVPTSMVLTKVSASTVPTDGSSRNEETPAAPTPAGATGGSSAWLDSSSENRGLGSELSKPGVLASQVDSPFSGCFEDLAISASTSLGMGPCHGPEENEYKSEGTFGIHVAENPSIQLLEGNPGPPADPDGGPRPQADRKFQEREVPCHRPSPGALWLQVAVTGVLVVTLLVVLYRRRLH

Variants of: B1
Details: with polg_hcv77 polg

**Q.** How did the “effect of a mutation on the interaction” value turn out when C508R was run?
**A.** decreasing interaction
